Measurements: the supplement of paper PMC10724198
± gives the standard deviation of the averaged measurements.

The sequences below were run on Saccharomyces cerevisiae (assay: protein stability index of tFT-peptide fusion (C-terminal peptide) (PSI (0-1 scale)); higher = more stable (slower turnover)). Details: genetic background: das1 deletion; temperature: 30 C.
Description: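 MPS profiling in S. cerevisiae of the yeast C-terminome library: the last 12 aa of each annotated ORF are fused to the C-terminus of a sfGFP-mCherry timer, after a GGGS linker. Cells are FACS-sorted into 8 mCherry/sfGFP bins and deep-sequenced. PSI runs from 0 (unstable) to 1 (stable); wild type and das1Δ backgrounds, two technical replicates each.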
With EVDDDGEIEGLF [MIS1 C-terminal 12 aa] the protein stability index was 0.7072 ± 0.0051.
In the case of EVDIGLYNCADY [ADE4 C-terminal 12 aa], the protein stability index is reported as 0.714 ± 0.05.
EVISSYQIDMIV [HIM1 C-terminal 12 aa] was tested, and the protein stability index was 0.657 ± 0.013.
Sequence EVLHEWKSHINQ [BIO3 C-terminal 12 aa] has a protein stability index of 0.743 ± 0.017.
For EVVRFYTIEAKL [AAT2 C-terminal 12 aa], the protein stability index was 0.771 ± 0.032.
EWEEKQGMDFVR [GPN2 C-terminal 12 aa] was tested, and the protein stability index was 0.7083 ± 0.0027.
In the case of EYSWEKPKKLEF [SAM2 C-terminal 12 aa], the protein stability index is reported as 0.7075 ± 0.0037.
FALVLAYMRLLT [FMP32 C-terminal 12 aa] was tested, and the protein stability index was 0.4219 ± 0.0012.
In the case of FDELFISTEVEL [TCA17 C-terminal 12 aa], the protein stability index is reported as 0.718 ± 0.018.
Work on FDVIKECQTLSN [PUG1 C-terminal 12 aa] yielded a protein stability index of 0.683 ± 0.037.
FELAKVSFDNKR [YKR104W C-terminal 12 aa] showed a protein stability index of 0.736 ± 0.031.
Sequence FERNYFPYSAVY [CLG1 C-terminal 12 aa] has a protein stability index of 0.6077 ± 0.0039.
With FEYEPPKFNLSE [GTB1 C-terminal 12 aa] the protein stability index was 0.689 ± 0.025.
Sequence FFSFIITIPFMV [YNL146W C-terminal 12 aa] has a protein stability index of 0.305 ± 0.01.
Work on FFTTCTIGCYDA [BUD7 C-terminal 12 aa] yielded a protein stability index of 0.6871 ± 0.0048.
FGKRRFFYRDLA [YPR146C C-terminal 12 aa] showed a protein stability index of 0.6901 ± 0.0029.
For FHDWFIRQFVSN [SNO1 C-terminal 12 aa], the protein stability index was 0.73 ± 0.0093.
In the case of FIWQNVLMWLMG [YIF1 C-terminal 12 aa], the protein stability index is reported as 0.7 ± 0.011.
For FKKSYKGVSKNL [MGM1 C-terminal 12 aa], the protein stability index was 0.704 ± 0.013.
FLGIELHAFFVS [YOL035C C-terminal 12 aa] was tested, and the protein stability index was 0.6355 ± 0.0029.
For “FLPFFLRFLCIN [YML116W-A C-terminal 12 aa]”, the protein stability index was 0.618 ± 0.021.
FQVVGKKKGKRF [SYH1 C-terminal 12 aa] was tested, and the protein stability index was 0.715 ± 0.009.
Work on FRGKRYHTIKRQ [MSS51 C-terminal 12 aa] yielded a protein stability index of 0.709 ± 0.0045.
FRLQEEQTNMRS [MSM1 C-terminal 12 aa] showed a protein stability index of 0.713 ± 0.02.
For “FRQSWQIDIGTW [YAL037C-B C-terminal 12 aa]”, the protein stability index was 0.7097 ± 0.0042.
“FRVVLNAQLNIQ [YOR108C-A C-terminal 12 aa]” showed a protein stability index of 0.69 ± 0.036.
For FSAVSSWLSFIF [YNL046W C-terminal 12 aa], the protein stability index was 0.772 ± 0.033.
FSCHSFEYLARR [YDR401W C-terminal 12 aa] was tested, and the protein stability index was 0.701 ± 0.013.
In the case of FSDLFSYSKSLV [ENT5 C-terminal 12 aa], the protein stability index is reported as 0.705 ± 0.04.
For FSSSRDDISFDI [DRS2 C-terminal 12 aa], the protein stability index was 0.7 ± 0.023.
FTDDSGTIKQEE [CMR1 C-terminal 12 aa] gave a protein stability index of 0.713 ± 0.0073.
With FTNEIINKLSTM [IDH1 C-terminal 12 aa] the protein stability index was 0.692 ± 0.052.
With FTVKANSQSESA [GRX7 C-terminal 12 aa] the protein stability index was 0.6758 ± 0.0034.
“FVFVRYFNYADS [YCR081C-A C-terminal 12 aa]” showed a protein stability index of 0.631 ± 0.023.

Same assay, conditions: genetic background: wild type; temperature: 30 C
In the case of EVDDDGEIEGLF [MIS1 C-terminal 12 aa], the protein stability index is reported as 0.684 ± 0.022.
EVDIGLYNCADY [ADE4 C-terminal 12 aa] was tested, and the protein stability index was 0.667 ± 0.02.
For EVISSYQIDMIV [HIM1 C-terminal 12 aa], the protein stability index was 0.62 ± 0.0077.
EVLHEWKSHINQ [BIO3 C-terminal 12 aa] gave a protein stability index of 0.6763 ± 0.0056.
Work on EVVRFYTIEAKL [AAT2 C-terminal 12 aa] yielded a protein stability index of 0.724 ± 0.085.
EWEEKQGMDFVR [GPN2 C-terminal 12 aa] showed a protein stability index of 0.685 ± 0.0095.
With EYSWEKPKKLEF [SAM2 C-terminal 12 aa] the protein stability index was 0.698 ± 0.035.
For FALVLAYMRLLT [FMP32 C-terminal 12 aa], the protein stability index was 0.237 ± 0.012.
Sequence FDELFISTEVEL [TCA17 C-terminal 12 aa] has a protein stability index of 0.6851 ± 0.0011.
FDVIKECQTLSN [PUG1 C-terminal 12 aa] showed a protein stability index of 0.6484 ± 0.0017.
For FELAKVSFDNKR [YKR104W C-terminal 12 aa], the protein stability index was 0.707 ± 0.095.
FERNYFPYSAVY [CLG1 C-terminal 12 aa] gave a protein stability index of 0.608 ± 0.018.
Sequence FEYEPPKFNLSE [GTB1 C-terminal 12 aa] has a protein stability index of 0.659 ± 0.037.
FFSFIITIPFMV [YNL146W C-terminal 12 aa] gave a protein stability index of 0.2042 ± 0.0015.
With FFTTCTIGCYDA [BUD7 C-terminal 12 aa] the protein stability index was 0.6861 ± 0.0047.
FGKRRFFYRDLA [YPR146C C-terminal 12 aa] gave a protein stability index of 0.693 ± 0.014.
FHDWFIRQFVSN [SNO1 C-terminal 12 aa] was tested, and the protein stability index was 0.321 ± 0.034.
For FIWQNVLMWLMG [YIF1 C-terminal 12 aa], the protein stability index was 0.54 ± 0.017.
FKKSYKGVSKNL [MGM1 C-terminal 12 aa] showed a protein stability index of 0.695 ± 0.022.
FLGIELHAFFVS [YOL035C C-terminal 12 aa] gave a protein stability index of 0.635 ± 0.058.
For “FLPFFLRFLCIN [YML116W-A C-terminal 12 aa]”, the protein stability index was 0.206 ± 0.021.
FQVVGKKKGKRF [SYH1 C-terminal 12 aa] was tested, and the protein stability index was 0.688 ± 0.049.
FRGKRYHTIKRQ [MSS51 C-terminal 12 aa] showed a protein stability index of 0.643 ± 0.035.
Work on FRLQEEQTNMRS [MSM1 C-terminal 12 aa] yielded a protein stability index of 0.758 ± 0.02.
“FRQSWQIDIGTW [YAL037C-B C-terminal 12 aa]” showed a protein stability index of 0.676 ± 0.017.
Sequence “FRVVLNAQLNIQ [YOR108C-A C-terminal 12 aa]” has a protein stability index of 0.674 ± 0.006.
For FSAVSSWLSFIF [YNL046W C-terminal 12 aa], the protein stability index was 0.725 ± 0.013.
For FSCHSFEYLARR [YDR401W C-terminal 12 aa], the protein stability index was 0.677 ± 0.047.
FSDLFSYSKSLV [ENT5 C-terminal 12 aa] was tested, and the protein stability index was 0.744 ± 0.013.
FSSSRDDISFDI [DRS2 C-terminal 12 aa] gave a protein stability index of 0.664 ± 0.0014.
Sequence FTDDSGTIKQEE [CMR1 C-terminal 12 aa] has a protein stability index of 0.703 ± 0.026.
With FTNEIINKLSTM [IDH1 C-terminal 12 aa] the protein stability index was 0.5514 ± 0.0019.
For FTVKANSQSESA [GRX7 C-terminal 12 aa], the protein stability index was 0.694 ± 0.027.
“FVFVRYFNYADS [YCR081C-A C-terminal 12 aa]” gave a protein stability index of 0.622 ± 0.011.
